The target of assay [1] is human CD27 (A59T) (human) (UniProt P26842). Put plainly: flow cytometry on CHO-K1 cells transfected with CD27 A59T (empty vector: GM FITC 212).
Assay [2] has the same target. The experiment in a line: flow cytometry on CHO-K1 cells transfected with CD27 A59T (empty vector: + 5.32).
Assay [3] deals with human CD27 (human) (UniProt P26842). Put plainly: flow cytometry on CHO-K1 cells transfected with CD27 (empty vector: GM FITC 212). A general note: In flow cytometry, cells or beads pass a laser one at a time.
For assay [4] the target is unchanged. Put plainly: flow cytometry on CHO-K1 cells transfected with CD27 (empty vector: + 5.32).

Fc-mCD70, sequence (O55237 45-195): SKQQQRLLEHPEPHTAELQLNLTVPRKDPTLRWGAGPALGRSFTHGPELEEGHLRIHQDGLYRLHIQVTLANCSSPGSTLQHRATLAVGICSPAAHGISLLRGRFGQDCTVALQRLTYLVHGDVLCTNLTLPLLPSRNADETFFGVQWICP

“Fc-mCD70 (from UniProt O55237 45-195) (Fc fusion)”: the GM FITC in assay [1] was determined as 1060; with human CD27 (human) [3] it was 1280. Further, the cells in the + gate worked out at 52.5 in assay [2] and 58.9 with human CD27 (human) [4].
